In patent publication US7968692B2, “Elongase genes and uses thereof” (Abbott Laboratories, priority 1998, dated 2011):

Tests used:
Assay type in all cases: cell-based, Saccharomyces cerevisiae
[1] = test system: S. cerevisiae 334; assay: Mouse elongase MELO7 activity in yeast; conditions: for amount of TPA: may not be significant
Procedure: The construct pRAE-87 was transformed into S. cerevisiae 334 (Hoveland et al., supra) and screened for elongase activity. The negative control strain was S. cerevisiae 334 containing pYX242 vector. The cultures were grown for 42-48 hours at 30° C., in selective media (Ausubel et al., supra), in the presence of 25 _M of GLA, AA, STA, EPA, DPA, or ADA. […] The levels of these fatty acids were 4.1% (DGLA), 6.33% (ADA), 3.4% (ETA), and 6.18% (DPA), respectively, of the total fatty acids in the strain containing the pRAE-87 sequence. […] MELO7 protein (MELO7) was not involved in the elongation of ADA. MELO7p also appeared to be involved in further elongation of the fatty acid DPA produced by two-carbon elongation to TPA when EPA was the added substrate, and when DPA was added. However, the small amounts of the product fatty acids (0.27% and 0.25% of TPA) may not be significant.

[2] = test system: S. cerevisiae 334; assay: Pavlova sp. elongase PELO1 activity in yeast; conditions: for elongation of GLA to DGLA: 25 μM of GLA
Procedure: (§1) The construct pRPL-6-1 was transformed into S. cerevisiae 334 (Hoveland et al., supra) and screened for elongase activity. S. cerevisiae 334 containing the unaltered pYX242 vector was used as a negative control. The cultures were grown for 44 hours at 24°C, in selective media (Ausubel et al., supra), in the presence of 25 μM of GLA or EPA. In this study, DGLA or ω3-docosapentaenoic acid (DPA, 22:5n-3), respectively, was the predicted product of the elongase activity.
as §1, with “constructs pRPL-6-B2 and pRPL-6-A3 were” for “construct pRPL-6-1 was”, “24° C.,” for “24°C,”
To further confirm the substrate specificity of the algal elongation enzyme, described above and referred to herein as PELO1p, the recombinant yeast strain 334(pRPL-6-B2) was grown in minimal media containing n-6 fatty acids LA, GLA, DGLA, AA, or n-3 fatty acids ALA, STA, ETA, EPA, or 20:0, or 20:1. […] The levels of these fatty acids were 1.40% ADA and 2.54% […], respectively, of the total fatty acids in the strains containing the PELO1 sequence. […] No elongation of the saturated fatty acid 20:0, or monounsaturated fatty acid 20:1 was seen. Also, no elongation of the C18 substrates LA, GLA, ALA, or STA was seen.

[3] = test system: S. cerevisiae 334; assay: Comparison of MAELO and S. cerevisiae ELO2 PUFA elongase activity in baker's yeast; conditions: 25 μM GLA; FIG. 12
Text: The ELO2 gene encoding for the yeast elongase was cloned from an S. cerevisiae genomic library (Origene, Rockville, Md.) using the primers RO514 (SEQ ID NO: 94) (5′-GGCTATGGATCCATGAATTCACTCGTTACTCAATATG-3′) and RO515 (SEQ ID NO: 95)(5′-CCTGCCAAGCTTTTACCTTTTTCTTCTGTGTTGAG-3′) incorporating the restriction sites (underlined) BamHI and HindIII (respectively). The ELO2 gene was cloned into the vector pYX242 at the BamHI and HindIII sites, designated pRELO, transformed into the S. cerevisiae host 334 (Hoveland et al., supra) and screened for PUFA elongase activity. The vector plasmid was used as a negative control and 334(pRAE-5) was grown to compare the PUFA elongase activity. The cultures were grown as previously described with no galactose in the media and 25 μM GLA added as a substrate. […] Additionally, when DGLA produced is expressed as a percent of the total lipids (shown in parenthesis, FIG. 12), the clones 334(pRELO-1) and 334 (pRELO-2) produced 0.153% and 0.2% DGLA respectively, while 334(pYX242) produced 0.185% DGLA. […] The M. alpina PUFA elongase activity is specific for this conversion as evidenced by the higher amount of DGLA produced compared to the control, 334(pYX242).

[4] = test system: S. cerevisiae 334; assay: T. aureum elongase TELO1 activity in yeast
Procedure: The constructs pRAT-4-A1 through pRAT-4-D1 were transformed into S. cerevisiae 334 (Hoveland et al., supra) and screened for elongase activity. S. cerevisiae 334 containing the unaltered pYX242 vector was used as a negative control. The cultures were grown for 48 hours at 24° C., in selective media (Ausubel et al., supra), in the presence of 25 (3)M of GLA or EPA. In this study, DGLA or ω3-docosapentaenoic acid (DPA, 22:5n-3), respectively, was the predicted product of the elongase activity. […] This was expected in that the cDNA sequence of pRAT-4-A3 had several stops at the 5′ end of the sequence, which would result in a truncated version of the translated enzyme (FIG. 76). Although the DGLA level was very low for 334(pRAT-4-A2), the GLA level was the lowest in this sample; therefore, the conversion level of the fatty acid to its elongated form was significant at 28.4%. What was not expected was that there was definite substrate specificity among the expressed enzymes. […]
To further confirm the substrate specificity of TELO1p, the recombinant yeast strain 334(pRAT-4-A7) was grown in minimal media containing 25 μM of various PUFAs. […] The levels of these fatty acids were 1.07% (C20:2n-6), 5.84% (DGLA), and 0.76% (ADA), respectively, of the total fatty acids in the lysates of 334(pRAT-4-A7). […] TELO1p is also involved in the elongation of n-3 PUFAs ALA, STA, and EPA (FIG. 88). […] The levels of these fatty acids were 2.71% ETrA, 4.19% (ETA), and 1.99% (DPA), respectively, of the total fatty acids in the strain containing the TELO1 sequence. […] When STA was added as a substrate, there was also an accumulation of DTA in the culture. The level of this fatty acid was 0.74%, which represented 15.0% conversion of ETA, the two-carbon chain elongated product from substrate STA.

[5] = 25 μM of EPA, 44 hours at 24° C.
[6] = 25 μM STA added as a substrate, FIG. 88

B1: MELO7: second mouse PUFA elongation enzyme (SEQ ID NO:6), homologue of HSELO1, expressed from pRAE-87 (protein, listed as Mus musculus)
chain: MEHFDASLSTYFKAFLGPRDTRVKGWFLLDNYIPTFVCSVIYLLIVWLGPKYMKNRQPFSCRGILQLYNLGLTLLSLYMFYELVTGVWEGKYNFFCQGTRSAGESDMKIIRVLWWYYFSKLIEFMDTFFFILRKNNHQITVLHVYHHATMLNIWWFVMNWVPCGHSYFGATLNSFIHVLMYSYYGLSSIPSMRPYLWWKKYITQGQLVQFVLTIIQTTCGVFWPCSFPLGWLFFQIGYMISLIALFTNFYIQTYNKKGASRRKDHLKGHQNGSVAAVNGHTNSFPSLENSVKPRKQRKD
[1]; DPA was added
  amount of TPA: 0.25%
[1]; EPA was the added substrate
  amount of TPA: 0.27%
[1]; substrate AA, FIG. 60
  conversion of AA to ADA: 36.0%
  level of ADA, of the total fatty acids: 6.33%
[1]; substrate ADA
  elongation of ADA: not involved
[1]; substrate EPA, FIG. 60
  conversion of EPA to DPA: 57.4%
  level of DPA, of the total fatty acids: 6.18%
[1]; substrate GLA, 42-48 hours at 30° C., FIG. 60
  level of DGLA, of the total fatty acids: 4.1%
[1]; substrate GLA, FIG. 60
  conversion of GLA to DGLA: 78.7%
[1]; substrate STA, FIG. 60
  conversion of STA to ETA: 81.0%
  level of ETA, of the total fatty acids: 3.4%

B2: pRPL-6-1: PELO1 clone with a single mutation relative to pRPL-6-B2 that dramatically reduced conversion (protein)
chain: MMLAAGYLLVLSAARQSFQQDIDNPNGAYSTSWTGLPIVMSVVYLSGVFGLTKYFENRKPMTGLKDYMFTYNLYQVIINVWCVVAFLLEVRRAGMSLIGNKVDLGPNSFRLGFVTWVHYNNKYVELLDTLWMVLRKKTQQVSFLHVYHHVLLMWAWFVVVKLGNGGDAYFAGLMNSIIHVMMYSYYTMALLGWSCPWKRYLTQAQLVQFCICLAHSTWAAVTGAYPWRICLVEVWVMVSMLVLFTRFYRQAYAKEAKAKEAKKLAQEASQAKAVKAE
modifications: Pavlova sp. (specific species unknown)
[2]; [5]
  DPA, of total fatty acids: 0.34%
  EPA (substrate), of total fatty acids: 32.28%
[2]; 44 hours at 24° C.
  elongation of GLA to DGLA: no conversion of GLA to DGLA was seen

B3: PELO1: Pavlova sp. 459 elongase (SEQ ID NO:119) from plasmid pRPL-6-B2 (protein)
chain: MMLAAGYLLVLSAARQSFQQDIDNPNGAYSTSWTGLPIVMSVVYLSGVFGLTKYFENRKPMTGLKDYMFTYNLYQVIINVWCVVAFLLEVRRAGMSLIGNKVDLGPNSFRLGFVTWVHYNNKYVELLDTLWMVLRKKTQQVSFLHVYHHVLLMWAWFVVVKLGNGGDAYFGGLMNSIIHVMMYSYYTMALLGWSCPWKRYLTQAQLVQFCICLAHSTWAAVTGAYPWRICLVEVWVMVSMLVLFTRFYRQAYAKEAKAKEAKKLAQEASQAKAVKAE
modifications: Pavlova sp. (specific species unknown)
[2]; 25 μM of EPA, 44 hours at 24° C., FIG. 99
  conversion of the substrate EPA to DPA: significant levels of conversion
[2]; 44 hours at 24° C.
  elongation of GLA to DGLA: GLA was not elongated to DGLA
[2]; FIG. 101
  elongation of saturated fatty acid 20:0 or monounsaturated fatty acid 20:1: No elongation
  elongation of the C18 substrates LA, GLA, ALA, or STA: no elongation
[2]; substrate AA, FIG. 101
  conversion of AA to ADA: 14.0%
  level of ADA, of the total fatty acids: 1.40%
[2]; substrate EPA, FIG. 101
  conversion of EPA to product elongated by two carbon atoms: 14.1%
  level of EPA (so in the source), of the total fatty acids: 2.54%

B4: 334(pRELO-1): individual clone of S. cerevisiae 334 overexpressing S. cerevisiae elongase ELO2 in pYX242 (pRELO) (protein, UniProt P25358 1-347, looked up)
Fatty acid elongase 2: MNSLVTQYAAPLFERYPQLHDYLPTLERPFFNISLWEHFDDVVTRVTNGRFVPSEFQFIAGELPLSTLPPVLYAITAYYVIIFGGRFLLSKSKPFKLNGLFQLHNLVLTSLSLTLLLLMVEQLVPIIVQHGLYFAICNIGAWTQPLVTLYYMNYIVKFIEFIDTFFLVLKHKKLTFLHTYHHGATALLCYTQLMGTTSISWVPISLNLGVHVVMYWYYFLAARGIRVWWKEWVTRFQIIQFVLDIGFIYFAVYQKAVHLYFPILPHCGDCVGSTTATFAGCAIISSYLVLFISFYINVYKRKGTKTSRVVKRAHGGVAAKVNEYVNVDLKNVPTPSPSPKPQHRRKR
[3]
  DGLA produced as a percent of the total lipids: 0.153%
  amount of 20:3n-6 or DGLA produced relative to negative control pYX242: twice

B5: TELO1: Thraustochytrium aureum 7091 elongase (SEQ ID NO:7) from plasmid pRAT-4-A7 (protein, listed as Thraustochytrium aureum)
chain: MANSSVWDDVVGRVETGVDQWMDGAKPYALTDGLPMMDVSTMLAFEVGYMAMLLFGIPIMKQMEKPFELKTIKLLHNLFLFGLSLYMCVETIRQAILGGYKVFGNDMEKGNESHAQGMSRIVYVFYVSKAYEFLDTAIMILCKKFNQVSFLHVYHHATIFAIWWAIAKYAPGGDAYFSVILNSFVHTVMYAYYFFSSQGFGFVKPIKPYITTLQMTQFMAMLVQSLYDYLFPCDYPQALVQLLGVYMITLLALFGNFFVQSYLKKPKKSKTN
[4]; 25 μM AA, FIG. 88
  conversion of AA to ADA: 3.5%
  level of ADA, of the total fatty acids: 0.76%
[4]; 25 μM ALA, FIG. 88
  conversion of ALA to ETrA: 43.3%
  level of ETrA, of the total fatty acids: 2.71%
[4]; 25 μM EPA, FIG. 88
  conversion of EPA to DPA: 11.5%
  level of DPA, of the total fatty acids: 1.99%
[4]; 25 μM GLA, FIG. 88
  conversion of GLA to DGLA: 78.6%
  level of DGLA, of the total fatty acids: 5.84%
[4]; 25 μM LA, FIG. 88
  conversion of LA to C20:2n-6: 23.2%
  level of C20:2n-6, of the total fatty acids: 1.07%
[4]; [6]
  conversion of ETA to DTA: 15.0%
  level of DTA: 0.74%
[4]; 25 μM STA, FIG. 88
  conversion of STA to ETA: 85.3%
  level of ETA, of the total fatty acids: 4.19%
[4]; EPA added as a substrate, 48 hours at 24° C., FIG. 81
  levels of DPA: significant levels of DPA
